Source: patent publication US9957297B2, “Template-fixed peptidomimetics as inhibitors of FPR1” (POLYPHOR AG, priority 2011, dated 2018)
Bridges are numbered along the chain shown (N, C = ends). [ ]: non-standard residue; d: D form. Dab = NCC[C@H](N)C(=O)O

T1: Formyl-Peptide Receptor 1 (UniProt P21462 1-350, limits assumed)
T1 sequence (looked up): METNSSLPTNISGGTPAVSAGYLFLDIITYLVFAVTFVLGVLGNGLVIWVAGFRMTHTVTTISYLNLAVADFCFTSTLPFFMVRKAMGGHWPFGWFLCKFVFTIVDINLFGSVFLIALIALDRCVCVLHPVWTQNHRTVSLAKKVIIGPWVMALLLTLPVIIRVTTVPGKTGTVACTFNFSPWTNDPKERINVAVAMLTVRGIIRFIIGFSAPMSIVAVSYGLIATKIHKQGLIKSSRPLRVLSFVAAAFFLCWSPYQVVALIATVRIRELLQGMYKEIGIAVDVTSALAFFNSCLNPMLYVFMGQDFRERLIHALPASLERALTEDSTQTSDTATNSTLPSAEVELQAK


Target: T1, Formyl-Peptide Receptor 1
Assay: cell-based or functional assay

Binder	β-Arrestin IC50
cyclo(THACWG[dP]WTICYQK[dP]P) (disulfide 4-11; SMILES CC[C@H](C)[C@@H]1NC(=O)[C@H]([C@@H](C)O)NC(=O)[C@H](Cc2c[nH]c3ccccc23)NC(=O)[C@H]2CCCN2C(=O)CNC(=O)[C@H](Cc2c[nH]c3ccccc23)NC(=O)[C@@H]2CSSC[C@H](NC1=O)C(=O)N[C@@H](Cc1ccc(O)cc1)C(=O)N[C@@H](CCC(N)=O)C(=O)N[C@@H](CCCCN)C(=O)N1CCC[C@@H]1C(=O)N1CCC[C@H]1C(=O)N[C@@H]([C@@H](C)O)C(=O)N[C@@H](Cc1c[nH]cn1)C(=O)N[C@@H](C)C(=O)N2) [cyclo(-Thr-His-Ala-Cys-Trp-Gly-^DPro-Trp-Thr-Ile-Cys-Tyr-Gln-Lys-^DPro-Pro-)]	294 nM
cyclo(YHACWG[dP]WTICYWK[dP]P) (disulfide 4-11; SMILES CC[C@H](C)[C@@H]1NC(=O)[C@H]([C@@H](C)O)NC(=O)[C@H](Cc2c[nH]c3ccccc23)NC(=O)[C@H]2CCCN2C(=O)CNC(=O)[C@H](Cc2c[nH]c3ccccc23)NC(=O)[C@@H]2CSSC[C@H](NC1=O)C(=O)N[C@@H](Cc1ccc(O)cc1)C(=O)N[C@@H](Cc1c[nH]c3ccccc13)C(=O)N[C@@H](CCCCN)C(=O)N1CCC[C@@H]1C(=O)N1CCC[C@H]1C(=O)N[C@@H](Cc1ccc(O)cc1)C(=O)N[C@@H](Cc1c[nH]cn1)C(=O)N[C@@H](C)C(=O)N2) [cyclo(-Tyr-His-Ala-Cys-Trp-Gly-^DPro-Trp-Thr-Ile-Cys-Tyr-Trp-Lys-^DPro-Pro-)]	62 nM
cyclo(YHACWG[dP]WTICYQE[dP]P) (disulfide 4-11; SMILES CC[C@H](C)[C@@H]1NC(=O)[C@H]([C@@H](C)O)NC(=O)[C@H](Cc2c[nH]c3ccccc23)NC(=O)[C@H]2CCCN2C(=O)CNC(=O)[C@H](Cc2c[nH]c3ccccc23)NC(=O)[C@@H]2CSSC[C@H](NC1=O)C(=O)N[C@@H](Cc1ccc(O)cc1)C(=O)N[C@@H](CCC(N)=O)C(=O)N[C@@H](CCC(=O)O)C(=O)N1CCC[C@@H]1C(=O)N1CCC[C@H]1C(=O)N[C@@H](Cc1ccc(O)cc1)C(=O)N[C@@H](Cc1c[nH]cn1)C(=O)N[C@@H](C)C(=O)N2) [cyclo(-Tyr-His-Ala-Cys-Trp-Gly-^DPro-Trp-Thr-Ile-Cys-Tyr-Gln-Glu-^DPro-Pro-)]	63 nM
cyclo(YHECHG[dP]WTICYQK[dP]P) (disulfide 4-11; SMILES CC[C@H](C)[C@@H]1NC(=O)[C@H]([C@@H](C)O)NC(=O)[C@H](Cc2c[nH]c3ccccc23)NC(=O)[C@H]2CCCN2C(=O)CNC(=O)[C@H](Cc2c[nH]cn2)NC(=O)[C@@H]2CSSC[C@H](NC1=O)C(=O)N[C@@H](Cc1ccc(O)cc1)C(=O)N[C@@H](CCC(N)=O)C(=O)N[C@@H](CCCCN)C(=O)N1CCC[C@@H]1C(=O)N1CCC[C@H]1C(=O)N[C@@H](Cc1ccc(O)cc1)C(=O)N[C@@H](Cc1c[nH]cn1)C(=O)N[C@@H](CCC(=O)O)C(=O)N2) [cyclo(-Tyr-His-Glu-Cys-His-Gly-^DPro-Trp-Thr-Ile-Cys-Tyr-Gln-Lys-^DPro-Pro-)]	321 nM
cyclo(YHACWG[dP]WTICYEK[dP]P) (disulfide 4-11; SMILES CC[C@H](C)[C@@H]1NC(=O)[C@H]([C@@H](C)O)NC(=O)[C@H](Cc2c[nH]c3ccccc23)NC(=O)[C@H]2CCCN2C(=O)CNC(=O)[C@H](Cc2c[nH]c3ccccc23)NC(=O)[C@@H]2CSSC[C@H](NC1=O)C(=O)N[C@@H](Cc1ccc(O)cc1)C(=O)N[C@@H](CCC(=O)O)C(=O)N[C@@H](CCCCN)C(=O)N1CCC[C@@H]1C(=O)N1CCC[C@H]1C(=O)N[C@@H](Cc1ccc(O)cc1)C(=O)N[C@@H](Cc1c[nH]cn1)C(=O)N[C@@H](C)C(=O)N2) [cyclo(-Tyr-His-Ala-Cys-Trp-Gly-^DPro-Trp-Thr-Ile-Cys-Tyr-Glu-Lys-^DPro-Pro-)]	68 nM
cyclo(YHACHG[dP]WTICYQE[dP]P) (disulfide 4-11; SMILES CC[C@H](C)[C@@H]1NC(=O)[C@H]([C@@H](C)O)NC(=O)[C@H](Cc2c[nH]c3ccccc23)NC(=O)[C@H]2CCCN2C(=O)CNC(=O)[C@H](Cc2c[nH]cn2)NC(=O)[C@@H]2CSSC[C@H](NC1=O)C(=O)N[C@@H](Cc1ccc(O)cc1)C(=O)N[C@@H](CCC(N)=O)C(=O)N[C@@H](CCC(=O)O)C(=O)N1CCC[C@@H]1C(=O)N1CCC[C@H]1C(=O)N[C@@H](Cc1ccc(O)cc1)C(=O)N[C@@H](Cc1c[nH]cn1)C(=O)N[C@@H](C)C(=O)N2) [cyclo(-Tyr-His-Ala-Cys-His-Gly-^DPro-Trp-Thr-Ile-Cys-Tyr-Gln-Glu-^DPro-Pro-)]	132 nM
cyclo(YHACFG[dP]WTICYQK[dP]P) (disulfide 4-11; SMILES CC[C@H](C)[C@@H]1NC(=O)[C@H]([C@@H](C)O)NC(=O)[C@H](Cc2c[nH]c3ccccc23)NC(=O)[C@H]2CCCN2C(=O)CNC(=O)[C@H](Cc2ccccc2)NC(=O)[C@@H]2CSSC[C@H](NC1=O)C(=O)N[C@@H](Cc1ccc(O)cc1)C(=O)N[C@@H](CCC(N)=O)C(=O)N[C@@H](CCCCN)C(=O)N1CCC[C@@H]1C(=O)N1CCC[C@H]1C(=O)N[C@@H](Cc1ccc(O)cc1)C(=O)N[C@@H](Cc1c[nH]cn1)C(=O)N[C@@H](C)C(=O)N2) [cyclo(-Tyr-His-Ala-Cys-Phe-Gly-^DPro-Trp-Thr-Ile-Cys-Tyr-Gln-Lys-^DPro-Pro-)]	166 nM
cyclo(YHACYG[dP]WTICYQK[dP]P) (disulfide 4-11; SMILES CC[C@H](C)[C@@H]1NC(=O)[C@H]([C@@H](C)O)NC(=O)[C@H](Cc2c[nH]c3ccccc23)NC(=O)[C@H]2CCCN2C(=O)CNC(=O)[C@H](Cc2ccc(O)cc2)NC(=O)[C@@H]2CSSC[C@H](NC1=O)C(=O)N[C@@H](Cc1ccc(O)cc1)C(=O)N[C@@H](CCC(N)=O)C(=O)N[C@@H](CCCCN)C(=O)N1CCC[C@@H]1C(=O)N1CCC[C@H]1C(=O)N[C@@H](Cc1ccc(O)cc1)C(=O)N[C@@H](Cc1c[nH]cn1)C(=O)N[C@@H](C)C(=O)N2) [cyclo(-Tyr-His-Ala-Cys-Tyr-Gly-^DPro-Trp-Thr-Ile-Cys-Tyr-Gln-Lys-^DPro-Pro-)]	184 nM
cyclo(YHACHG[dP]WTICYWK[dP]P) (disulfide 4-11; SMILES CC[C@H](C)[C@@H]1NC(=O)[C@H]([C@@H](C)O)NC(=O)[C@H](Cc2c[nH]c3ccccc23)NC(=O)[C@H]2CCCN2C(=O)CNC(=O)[C@H](Cc2c[nH]cn2)NC(=O)[C@@H]2CSSC[C@H](NC1=O)C(=O)N[C@@H](Cc1ccc(O)cc1)C(=O)N[C@@H](Cc1c[nH]c3ccccc13)C(=O)N[C@@H](CCCCN)C(=O)N1CCC[C@@H]1C(=O)N1CCC[C@H]1C(=O)N[C@@H](Cc1ccc(O)cc1)C(=O)N[C@@H](Cc1c[nH]cn1)C(=O)N[C@@H](C)C(=O)N2) [cyclo(-Tyr-His-Ala-Cys-His-Gly-^DPro-Trp-Thr-Ile-Cys-Tyr-Trp-Lys-^DPro-Pro-)]	36 nM

Continued, values first:

β-Arrestin IC50	Binder
76 nM	cyclo(YHACWG[dP]WTICYQA[dP]P) (disulfide 4-11; SMILES CC[C@H](C)[C@@H]1NC(=O)[C@H]([C@@H](C)O)NC(=O)[C@H](Cc2c[nH]c3ccccc23)NC(=O)[C@H]2CCCN2C(=O)CNC(=O)[C@H](Cc2c[nH]c3ccccc23)NC(=O)[C@@H]2CSSC[C@H](NC1=O)C(=O)N[C@@H](Cc1ccc(O)cc1)C(=O)N[C@@H](CCC(N)=O)C(=O)N[C@@H](C)C(=O)N1CCC[C@@H]1C(=O)N1CCC[C@H]1C(=O)N[C@@H](Cc1ccc(O)cc1)C(=O)N[C@@H](Cc1c[nH]cn1)C(=O)N[C@@H](C)C(=O)N2) [cyclo(-Tyr-His-Ala-Cys-Trp-Gly-^DPro-Trp-Thr-Ile-Cys-Tyr-Gln-Ala-^DPro-Pro-)]
144 nM	cyclo([Dab]HKCHG[dP]WTICYEK[dP]E) (disulfide 4-11; SMILES CC[C@H](C)[C@@H]1NC(=O)[C@H]([C@@H](C)O)NC(=O)[C@H](Cc2c[nH]c3ccccc23)NC(=O)[C@H]2CCCN2C(=O)CNC(=O)[C@H](Cc2c[nH]cn2)NC(=O)[C@@H]2CSSC[C@H](NC1=O)C(=O)N[C@@H](Cc1ccc(O)cc1)C(=O)N[C@@H](CCC(=O)O)C(=O)N[C@@H](CCCCN)C(=O)N1CCC[C@@H]1C(=O)N[C@@H](CCC(=O)O)C(=O)N[C@@H](CCN)C(=O)N[C@@H](Cc1c[nH]cn1)C(=O)N[C@@H](CCCCN)C(=O)N2) [cyclo(-Dab-His-Lys-Cys-His-Gly-^DPro-Trp-Thr-Ile-Cys-Tyr-Glu-Lys-^DPro-Glu-)]
342 nM	cyclo(HHACWG[dP]WTICYQK[dP]P) (disulfide 4-11; SMILES CC[C@H](C)[C@@H]1NC(=O)[C@H]([C@@H](C)O)NC(=O)[C@H](Cc2c[nH]c3ccccc23)NC(=O)[C@H]2CCCN2C(=O)CNC(=O)[C@H](Cc2c[nH]c3ccccc23)NC(=O)[C@@H]2CSSC[C@H](NC1=O)C(=O)N[C@@H](Cc1ccc(O)cc1)C(=O)N[C@@H](CCC(N)=O)C(=O)N[C@@H](CCCCN)C(=O)N1CCC[C@@H]1C(=O)N1CCC[C@H]1C(=O)N[C@@H](Cc1c[nH]cn1)C(=O)N[C@@H](Cc1c[nH]cn1)C(=O)N[C@@H](C)C(=O)N2) [cyclo(-His-His-Ala-Cys-Trp-Gly-^DPro-Trp-Thr-Ile-Cys-Tyr-Gln-Lys-^DPro-Pro-)]
131 nM	cyclo(EHACWG[dP]WTICYQK[dP]P) (disulfide 4-11; SMILES CC[C@H](C)[C@@H]1NC(=O)[C@H]([C@@H](C)O)NC(=O)[C@H](Cc2c[nH]c3ccccc23)NC(=O)[C@H]2CCCN2C(=O)CNC(=O)[C@H](Cc2c[nH]c3ccccc23)NC(=O)[C@@H]2CSSC[C@H](NC1=O)C(=O)N[C@@H](Cc1ccc(O)cc1)C(=O)N[C@@H](CCC(N)=O)C(=O)N[C@@H](CCCCN)C(=O)N1CCC[C@@H]1C(=O)N1CCC[C@H]1C(=O)N[C@@H](CCC(=O)O)C(=O)N[C@@H](Cc1c[nH]cn1)C(=O)N[C@@H](C)C(=O)N2) [cyclo(-Glu-His-Ala-Cys-Trp-Gly-^DPro-Trp-Thr-Ile-Cys-Tyr-Gln-Lys-^DPro-Pro-)]
35 nM	cyclo(YHICHG[dP]WTICYQK[dP]P) (disulfide 4-11; SMILES CC[C@H](C)[C@@H]1NC(=O)[C@H](Cc2c[nH]cn2)NC(=O)[C@H](Cc2ccc(O)cc2)NC(=O)[C@@H]2CCCN2C(=O)[C@H]2CCCN2C(=O)[C@H](CCCCN)NC(=O)[C@H](CCC(N)=O)NC(=O)[C@H](Cc2ccc(O)cc2)NC(=O)[C@@H]2CSSC[C@H](NC1=O)C(=O)N[C@@H](Cc1c[nH]cn1)C(=O)NCC(=O)N1CCC[C@@H]1C(=O)N[C@@H](Cc1c[nH]c3ccccc13)C(=O)N[C@@H]([C@@H](C)O)C(=O)N[C@@H]([C@@H](C)CC)C(=O)N2) [cyclo(-Tyr-His-Ile-Cys-His-Gly-^DPro-Trp-Thr-Ile-Cys-Tyr-Gln-Lys-^DPro-Pro-)]
